Laboratory results taken from publication PMC8660796, “Structural and molecular basis for Cardiovirus 2A protein as a viral gene expression switch”.
Changes are numbered by the printed parent chain. Numbers in names are those of the source.

T1: EMCV 2A wild type (Encephalomyocarditis virus (EMCV), UniProt P12296 902-1044)
T1 sequence: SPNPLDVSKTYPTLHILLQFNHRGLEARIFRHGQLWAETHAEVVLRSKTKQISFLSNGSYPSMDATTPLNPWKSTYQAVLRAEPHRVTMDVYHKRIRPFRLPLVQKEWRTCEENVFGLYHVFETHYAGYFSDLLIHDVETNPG

B1: EMCV 3 G7C (structured_RNA)
RNA: GGGUUUUUCAGACUCAACGAGCGGCAGUGUCAUCAAUGGCUCAAACCCUACUGCCGAA
B2: EMCV 3 C37G (structured_RNA)
RNA: B1 RNA with C18G, C48G
B3: EMCV 3 G7C+C37G (structured_RNA)
RNA: B1 RNA with C48G

Key:
EMCV 2A wild type [1] = molecular target: T1, EMCV 2A wild type; assay: MST; labelled 2A; MST: 50 mM Tris-HCl pH 7.8, 150 mM NaCl, 10 mM MgCl2, 2 mM DTT, 0.05% Tween 20, 25 C; EMSA: 10 mM Tris-HCl pH 7.4, ~140 mM salt, 2 mM Mg acetate, 1 mM DTT, 5% glycerol, 100 ug/mL tRNA, 37 C; ITC: 50 mM Tris-HCl pH 7.4, 400 mM NaCl, 25 C; tweezers: 20 mM HEPES pH 7.6, 300 mM KCl, 5 mM MgCl2, 5 mM DTT, 0.05% Tween; conditions: protein: recombinant; tags: C-terminal GlySerLysHis6; label: 5' fluorophore (Dylight 650 in MST, A647/Cy5 in EMSA); unlabelled when 2A is labelled; stem-loop
EMCV 2A wild type [2] = molecular target: T1, EMCV 2A wild type; assay: EMSA; MST: 50 mM Tris-HCl pH 7.8, 150 mM NaCl, 10 mM MgCl2, 2 mM DTT, 0.05% Tween 20, 25 C; EMSA: 10 mM Tris-HCl pH 7.4, ~140 mM salt, 2 mM Mg acetate, 1 mM DTT, 5% glycerol, 100 ug/mL tRNA, 37 C; ITC: 50 mM Tris-HCl pH 7.4, 400 mM NaCl, 25 C; tweezers: 20 mM HEPES pH 7.6, 300 mM KCl, 5 mM MgCl2, 5 mM DTT, 0.05% Tween; conditions: protein: recombinant; tags: C-terminal GlySerLysHis6; label: 5' Cy5
EMCV 2A wild type [3] = molecular target: T1, EMCV 2A wild type; assay: EMSA; binding restored; MST: 50 mM Tris-HCl pH 7.8, 150 mM NaCl, 10 mM MgCl2, 2 mM DTT, 0.05% Tween 20, 25 C; EMSA: 10 mM Tris-HCl pH 7.4, ~140 mM salt, 2 mM Mg acetate, 1 mM DTT, 5% glycerol, 100 ug/mL tRNA, 37 C; ITC: 50 mM Tris-HCl pH 7.4, 400 mM NaCl, 25 C; tweezers: 20 mM HEPES pH 7.6, 300 mM KCl, 5 mM MgCl2, 5 mM DTT, 0.05% Tween; conditions: protein: recombinant; tags: C-terminal GlySerLysHis6; label: 5' Cy5; pseudoknot-like

Binder	binding result (EMCV 2A wild type [2])	also measured
AGCGGCAGUGUCAUCAAUGGCUCAAACCCUACUGCCGAA (structured_RNA) [EMCV 4]		binding result (EMCV 2A wild type [1]): no binding
B1	no binding	
B2	no binding	
B3		binding result (EMCV 2A wild type [3]): binds
